Laboratory results taken from US20080241109A1.

Target: Fas receptor (human) (UniProt P25445)
Assay: cell-based or functional assay

UniProt P25445, sequence (P25445 26-335): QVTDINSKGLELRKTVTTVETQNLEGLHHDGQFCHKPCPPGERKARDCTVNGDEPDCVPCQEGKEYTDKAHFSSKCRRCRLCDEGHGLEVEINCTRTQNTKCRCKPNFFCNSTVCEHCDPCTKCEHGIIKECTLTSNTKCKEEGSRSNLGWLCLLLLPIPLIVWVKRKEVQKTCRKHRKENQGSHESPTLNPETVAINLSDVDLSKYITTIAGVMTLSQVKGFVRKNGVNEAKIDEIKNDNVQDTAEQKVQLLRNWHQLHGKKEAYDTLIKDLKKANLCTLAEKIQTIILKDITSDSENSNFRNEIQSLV

Substance	IC50 (ng/ml), PESMTS survival assay, ARH-77 cells (multiple myeloma) [ng/mL]	IC50 (ng/ml), PESMTS survival assay, DOHH2 cells (follicular lymphoma) [ng/mL]	IC50 (ng/ml), PESMTS survival assay, HL60 (AML-M3) cells [ng/mL]	IC50 (ng/ml), PESMTS survival assay, Jurkat cells (acute T lymphoblastic leukemia) [ng/mL]	IC50 (ng/ml), PESMTS survival assay, K562 cells (chronic myeloid leukaemia) [ng/mL]	IC50 (ng/ml), PESMTS survival assay, NB4 (AML-M3) cells [ng/mL]	IC50 (ng/ml), PESMTS survival assay, Namalwa (ALL-L3) cells [ng/mL]	IC50 (ng/ml), PESMTS survival assay, RPMI-8226 cells (multiple myeloma) [ng/mL]	IC50 (ng/ml), PESMTS survival assay, Raji (ALL-L3) cells [ng/mL]	IC50 (ng/ml), PESMTS survival assay, SC-I cells (follicular lymphoma) [ng/mL]	IC50 (ng/ml), PESMTS survival assay, U266 cells (multiple myeloma) [ng/mL]	IC50 (ng/ml), PESMTS survival assay, OPM2 cells (multiple myeloma) [ng/mL]
CH11 (antibody)	> 10000	> 10000	> 10000	6.58	> 10000	> 10000	> 10000	> 10000	15.8	> 10000	> 10000	
MegaFasL (fusion polypeptide m or hACRP30:hFasL) (from UniProt P48023 103-281) (ligand)	10.4	1.17	213	0.06	> 10000	16	57	3.57	5.6	> 10000	6.2	2.19
